Results from the supplement of paper PMC10126150.
± gives the standard deviation of the averaged measurements.

Tested on: ATP
Test: switch fluorescence ratio, 500 uM ATP over buffer (Cy3 cluster intensity, sum of 5 cycles each) (fold (ratio)); higher = stronger signal-on switching upon ATP binding; sequences stand for … in TCGTCGGCAGCGTCAGATGTGTATAAGAGACAGTTTTTTTTTTTTTTTTTTTTTTTTT…TC
Settings: aptamer strand: ATP DNA aptamer (quencher-CACCTGGGGGAGTATTGCGGAGGAAGG + anchor), 100 nM annealed; ATP concentration: 500 uM
Procedure, shortened: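 The quencher-labelled ATP aptamer, at 100 nM, was annealed to Cy3-labelled switching-strand clusters on a modified Illumina MiSeq flow-cell. The clusters were imaged in selection buffer, then after 15 min with 500 uM ATP at 22 °C, and this buffer/ATP cycle ran five times with NaOH stripping and re-annealing between runs. Per-cluster fluorescence ratios, summed target-cycle over summed buffer-cycle Cy3 intensity, were averaged per switch-domain sequence. Clusters outside 100-1000 RFU were excluded.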
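Note: ATP exposure 15 min at 22 °C before imaging.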

Sequence	switch fluorescence ratio
GACGTGTTGG	1.01 ± 0.065
GACGTTAGCT	1.03 ± 0.012
GACGTTAGGG	0.957 ± 0.042
GACGTTTACA	1.17 ± 0.016
GACTAAAAGA	0.99 ± 0.055
GACTAATTTT	0.9844 ± 0.0081
GACTAGGGGG	1 ± 0.048
GACTAGTGGT	1.01 ± 0.035
GACTATCTAG	0.975 ± 0.056
GACTATGACC	1.05 ± 0.013
GACTATGGGA	1.42 ± 0.55
GACTCATAAT	1.004 ± 0.0015
GACTCCGATT	2.28 ± 0.1
GACTCTACGG	1.05 ± 0.032
GACTGAAAAA	0.981 ± 0.14
GACTGAGAGT	1 ± 0.054
GACTGAGTTC	0.972 ± 0.042
GACTGGGCGG	1 ± 0.021
GACTGGGGG	1.0292 ± 0.00087
GACTGGGGGA	1.01 ± 0.025
GACTGGTATG	0.972 ± 0.011
GACTTACCAC	1.17 ± 0.052
GACTTAGGAA	1.05 ± 0.072
GACTTGAATT	0.99 ± 0.034
GACTTGGTAG	0.9884 ± 0.0053

Sequence	switch fluorescence ratio
GACTTGGTGT	1.047 ± 0.0092
GACTTGTTGG	0.974 ± 0.042
GACTTTAGCG	1.03 ± 0.023
GACTTTGAGC	1.01 ± 0.016
GACTTTGTAC	1.06 ± 0.014
GACTTTTGGG	1.01 ± 0.033
GAGAAAAAGG	0.976 ± 0.013
GAGAACGGTG	1 ± 0.032
GAGAACGTAG	0.9817 ± 0.0066
GAGAAGGGGG	1.04 ± 0.049
GAGAAGGGTG	1.01 ± 0.071
GAGAAGTGTG	0.993 ± 0.038
GAGAATTATA	0.978 ± 0.019
GAGAGAACTT	1.03 ± 0.021
GAGAGCAGGG	0.995 ± 0.026
GAGAGCCTTA	0.9853 ± 0.0079
GAGAGGAGAG	0.998 ± 0.035
GAGAGGAGCT	1.01 ± 0.039
GAGAGGGGGC	0.931 ± 0.018
GAGAGTGTGT	0.982 ± 0.011
GAGATACATG	1.02 ± 0.044
GAGATCGGTA	1.006 ± 0.0069
GAGATGCTGC	1.05 ± 0.017
GAGATGGGGG	0.981 ± 0.038
GAGATGTACC	1.03 ± 0.026

Sequence	switch fluorescence ratio
GAGATTAAGA	0.973 ± 0.1
GAGATTCGCT	0.988 ± 0.014
GAGATTGGGG	0.99 ± 0.022
GAGCAGGGGT	1.04 ± 0.063
GAGCATAGGG	1.02 ± 0.013
GAGCATTGGA	0.992 ± 0.036
GAGCCACGGG	1.04 ± 0.015
GAGCCTGGGT	1.01 ± 0.017
GAGCGAAGGA	1.01 ± 0.029
GAGCGCGGCG	0.977 ± 0.048
GAGCGTAGTA	1 ± 0.037
GAGCGTCTGG	1.02 ± 0.011
GAGCTACGGG	1.01 ± 0.033
GAGCTAGGCA	0.958 ± 0.03
GAGCTAGGGT	0.9905 ± 0.006
GAGCTAGTGT	0.9792 ± 0.0081
GAGCTCAGTG	1.002 ± 0.0069
GAGCTGAATG	0.9518 ± 0.0063
GAGCTGGATA	0.967 ± 0.03
GAGCTTAGGA	0.988 ± 0.013
GAGCTTGCGT	1.01 ± 0.025
GAGCTTGGCA	0.9859 ± 0.0058
GAGCTTGGGG	0.991 ± 0.028
GAGCTTTTCA	0.965 ± 0.023
GAGGAAAATA	0.981 ± 0.011

Sequence	switch fluorescence ratio
GAGGAAGTTA	1.06 ± 0.097
GAGGAATTTT	0.983 ± 0.0093
GAGGACTGTA	1.09 ± 0.025
GAGGAGCTCG	0.9522 ± 0.0045
GAGGAGGATA	0.953 ± 0.024
GAGGAGGCGG	1.03 ± 0.014
GAGGAGGGTT	0.992 ± 0.051
GAGGATAAGT	0.988 ± 0.078
GAGGATCTGT	0.961 ± 0.023
GAGGATGGGG	0.977 ± 0.039
GAGGCAGGGA	1.19 ± 0.16
GAGGCATTTT	1.09 ± 0.089
GAGGCCTTAC	1.69 ± 0.043
GAGGCGCGGA	1.01 ± 0.013
GAGGCTGATA	1.02 ± 0.013
GAGGCTTGTT	0.981 ± 0.01
GAGGGAAGAT	0.999 ± 0.014
GAGGGACGCT	1.02 ± 0.033
GAGGGAGCGT	1.002 ± 0.0083
GAGGGAGGGG	1.02 ± 0.044
GAGGGAGGTA	0.9658 ± 0.006
GAGGGAGTAG	0.9962 ± 0.0012
GAGGGAGTTG	0.997 ± 0.017
GAGGGATATT	1.02 ± 0.022
GAGGGATTCG	1.01 ± 0.014

Sequence	switch fluorescence ratio
GAGGGATTGT	1 ± 0.021
GAGGGCATCA	0.99 ± 0.015
GAGGGCGGAC	1.05 ± 0.19
GAGGGCTGGG	0.978 ± 0.079
GAGGGCTTAG	0.992 ± 0.016
GAGGGCTTCG	1.02 ± 0.1
GAGGGGGACA	0.9779 ± 0.0081
GAGGGGGACG	1 ± 0.14
GAGGGGGAGA	0.99 ± 0.024
GAGGGGGATA	1.03 ± 0.058
GAGGGGGCCG	0.996 ± 0.034
GAGGGGGCCT	0.989 ± 0.049
GAGGGGGGAA	1.01 ± 0.03
GAGGGGGGCT	1.023 ± 0.006
GAGGGGGGTT	1 ± 0.027
GAGGGGGTCG	1.02 ± 0.079
GAGGGGTAAT	0.986 ± 0.012
GAGGGGTAGC	0.988 ± 0.016
GAGGGTAAAT	1.02 ± 0.023
GAGGGTATTT	0.978 ± 0.03
GAGGGTCTGT	0.9794 ± 0.0048
GAGGGTGGAA	1.04 ± 0.12
GAGGGTGGCC	1.03 ± 0.031
GAGGGTGGGA	0.983 ± 0.031
GAGGGTGTGT	0.979 ± 0.038

Sequence	switch fluorescence ratio
GAGGGTTGCG	0.973 ± 0.011
GAGGGTTGTG	0.969 ± 0.031
GAGGTAAAAT	0.968 ± 0.016
GAGGTAGGGG	0.968 ± 0.021
GAGGTCATTA	0.9895 ± 0.0023
GAGGTCATTG	0.9996 ± 0.0018
GAGGTCTGGG	0.978 ± 0.015
GAGGTCTGTT	0.959 ± 0.029
GAGGTGAACA	1.04 ± 0.067
GAGGTGAGGC	1.03 ± 0.019
GAGGTGCATG	0.949 ± 0.024
GAGGTGCCAG	0.992 ± 0.031
GAGGTTATGC	0.968 ± 0.04
GAGGTTGG	1.02 ± 0.017
GAGGTTTCTT	1.01 ± 0.0048
GAGGTTTGTT	0.979 ± 0.023
GAGGTTTTGT	1 ± 0.023
GAGTAAACTT	1.056 ± 0.0082
GAGTAAAGCA	1.058 ± 0.0031
GAGTAAAGGG	0.9992 ± 0.0019
GAGTAAGATC	0.999 ± 0.048
GAGTAAGGGG	0.969 ± 0.025
GAGTAATGAG	0.984 ± 0.068
GAGTAATGGT	1.04 ± 0.02
GAGTACCTGG	1.01 ± 0.04

Sequence	switch fluorescence ratio
GAGTACGTTA	1.16 ± 0.013
GAGTACTTAG	1.03 ± 0.011
GAGTAGAAAG	0.9989 ± 0.0061
GAGTAGGGTT	0.983 ± 0.018
GAGTATGCGC	0.996 ± 0.017
GAGTATGTGC	0.9691 ± 0.0066
GAGTATGTTC	0.95 ± 0.017
GAGTCCACGT	1 ± 0.034
GAGTCCATTA	0.981 ± 0.015
GAGTCCATTG	1.02 ± 0.026
GAGTCCGTGG	1.1 ± 0.021
GAGTCGGCCT	0.975 ± 0.012
GAGTCTAGGA	1.01 ± 0.039
GAGTCTGAAA	1.141 ± 0.006
GAGTCTGCGT	1.08 ± 0.026
GAGTGAGGGA	1.03 ± 0.024
GAGTGAGGTG	1.01 ± 0.1
GAGTGAGTTA	0.977 ± 0.032
GAGTGCAGGA	1.01 ± 0.033
GAGTGGAGGT	0.985 ± 0.01
GAGTGGGAGC	0.997 ± 0.066
GAGTGGGGAT	1.02 ± 0.021
GAGTGGGTTG	0.982 ± 0.0092
GAGTGGTGTT	0.983 ± 0.049
GAGTGGTTTA	0.9913 ± 0.0096

Sequence	switch fluorescence ratio
GAGTGGTTTT	0.991 ± 0.063
GAGTGTAAGT	0.979 ± 0.01
GAGTGTGGGG	0.96 ± 0.03
GAGTGTTTGG	0.949 ± 0.034
GAGTTAATGC	1.01 ± 0.049
GAGTTAATTT	0.989 ± 0.017
GAGTTACAGG	1.04 ± 0.022
GAGTTAGTGC	0.982 ± 0.039
GAGTTAGTGG	1.01 ± 0.041
GAGTTCCCGG	1 ± 0.011
GAGTTCGTTT	1.02 ± 0.011
GAGTTCTAGG	0.991 ± 0.038
GAGTTGCGCG	1.01 ± 0.051
GAGTTGGGTG	1.01 ± 0.032
GAGTTTAAGA	0.979 ± 0.024
GAGTTTAAGG	0.9978 ± 0.009
GAGTTTAGTC	1.01 ± 0.013
GAGTTTGGGC	1.01 ± 0.039
GAGTTTGGTA	0.96 ± 0.027
GAGTTTGGTT	0.98 ± 0.063
GAGTTTGTCA	0.9917 ± 0.0087
GAGTTTTGTG	0.961 ± 0.015
GAGTTTTTTC	0.993 ± 0.018
GATAAAAGGA	1.002 ± 0.0063
GATAAAATGC	1.02 ± 0.044
